The values that follow come from publication PMC4182348 (PLoS ONE, 2014).

Holding throughout (details): one partner purified
Assay [1] deals with T1, tetanus toxoid (Clostridium tetani, strain  …, UniProt P04958). Description: ELISA. (In general: An ELISA detects its analyte on a solid surface through an enzyme-linked reagent.)
T1 sequence (P04958 1-457, chain 1 of 2): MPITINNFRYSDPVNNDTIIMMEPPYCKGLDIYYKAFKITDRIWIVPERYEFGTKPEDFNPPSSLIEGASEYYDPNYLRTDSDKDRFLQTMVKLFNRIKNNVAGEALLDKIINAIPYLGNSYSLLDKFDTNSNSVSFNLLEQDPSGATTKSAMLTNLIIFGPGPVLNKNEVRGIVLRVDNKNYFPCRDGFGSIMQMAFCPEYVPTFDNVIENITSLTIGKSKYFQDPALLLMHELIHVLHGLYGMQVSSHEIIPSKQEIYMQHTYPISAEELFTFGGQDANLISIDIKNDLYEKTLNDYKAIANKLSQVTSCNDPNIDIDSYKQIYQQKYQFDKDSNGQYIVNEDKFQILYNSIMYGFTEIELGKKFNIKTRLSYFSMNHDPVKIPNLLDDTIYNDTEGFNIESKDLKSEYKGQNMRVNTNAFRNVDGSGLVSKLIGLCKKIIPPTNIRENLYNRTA
T1 sequence (P04958 458-1315, chain 2 of 2): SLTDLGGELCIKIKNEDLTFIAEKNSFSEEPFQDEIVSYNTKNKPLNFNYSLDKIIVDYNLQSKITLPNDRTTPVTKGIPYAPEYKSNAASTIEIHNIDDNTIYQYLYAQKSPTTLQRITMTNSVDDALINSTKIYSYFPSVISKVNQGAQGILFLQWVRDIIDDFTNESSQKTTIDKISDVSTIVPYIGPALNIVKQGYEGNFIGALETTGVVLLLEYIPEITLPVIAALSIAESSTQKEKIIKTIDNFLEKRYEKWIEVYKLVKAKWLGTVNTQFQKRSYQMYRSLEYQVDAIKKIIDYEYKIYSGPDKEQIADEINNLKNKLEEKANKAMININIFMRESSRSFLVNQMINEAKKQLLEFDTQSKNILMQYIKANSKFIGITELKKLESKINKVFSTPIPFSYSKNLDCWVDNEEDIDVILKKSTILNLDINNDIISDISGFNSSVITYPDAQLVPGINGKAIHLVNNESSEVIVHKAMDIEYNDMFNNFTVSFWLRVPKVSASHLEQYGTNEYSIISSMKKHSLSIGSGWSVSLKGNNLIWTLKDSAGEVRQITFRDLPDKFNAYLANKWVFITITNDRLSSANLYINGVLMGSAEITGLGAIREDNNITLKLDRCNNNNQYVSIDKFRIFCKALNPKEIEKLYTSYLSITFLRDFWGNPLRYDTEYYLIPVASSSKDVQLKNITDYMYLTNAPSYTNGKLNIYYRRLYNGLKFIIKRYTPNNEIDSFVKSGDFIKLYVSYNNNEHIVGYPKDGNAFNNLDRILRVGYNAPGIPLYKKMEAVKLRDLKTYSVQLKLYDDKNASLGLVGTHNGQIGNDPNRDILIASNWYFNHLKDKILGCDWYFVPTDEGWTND
Assay [2] concerns the target tetanus toxoid (Clostridium tetani, strain  …, UniProt P04958). Description: SPR.
Target sequence in this assay (P04958 whole entry): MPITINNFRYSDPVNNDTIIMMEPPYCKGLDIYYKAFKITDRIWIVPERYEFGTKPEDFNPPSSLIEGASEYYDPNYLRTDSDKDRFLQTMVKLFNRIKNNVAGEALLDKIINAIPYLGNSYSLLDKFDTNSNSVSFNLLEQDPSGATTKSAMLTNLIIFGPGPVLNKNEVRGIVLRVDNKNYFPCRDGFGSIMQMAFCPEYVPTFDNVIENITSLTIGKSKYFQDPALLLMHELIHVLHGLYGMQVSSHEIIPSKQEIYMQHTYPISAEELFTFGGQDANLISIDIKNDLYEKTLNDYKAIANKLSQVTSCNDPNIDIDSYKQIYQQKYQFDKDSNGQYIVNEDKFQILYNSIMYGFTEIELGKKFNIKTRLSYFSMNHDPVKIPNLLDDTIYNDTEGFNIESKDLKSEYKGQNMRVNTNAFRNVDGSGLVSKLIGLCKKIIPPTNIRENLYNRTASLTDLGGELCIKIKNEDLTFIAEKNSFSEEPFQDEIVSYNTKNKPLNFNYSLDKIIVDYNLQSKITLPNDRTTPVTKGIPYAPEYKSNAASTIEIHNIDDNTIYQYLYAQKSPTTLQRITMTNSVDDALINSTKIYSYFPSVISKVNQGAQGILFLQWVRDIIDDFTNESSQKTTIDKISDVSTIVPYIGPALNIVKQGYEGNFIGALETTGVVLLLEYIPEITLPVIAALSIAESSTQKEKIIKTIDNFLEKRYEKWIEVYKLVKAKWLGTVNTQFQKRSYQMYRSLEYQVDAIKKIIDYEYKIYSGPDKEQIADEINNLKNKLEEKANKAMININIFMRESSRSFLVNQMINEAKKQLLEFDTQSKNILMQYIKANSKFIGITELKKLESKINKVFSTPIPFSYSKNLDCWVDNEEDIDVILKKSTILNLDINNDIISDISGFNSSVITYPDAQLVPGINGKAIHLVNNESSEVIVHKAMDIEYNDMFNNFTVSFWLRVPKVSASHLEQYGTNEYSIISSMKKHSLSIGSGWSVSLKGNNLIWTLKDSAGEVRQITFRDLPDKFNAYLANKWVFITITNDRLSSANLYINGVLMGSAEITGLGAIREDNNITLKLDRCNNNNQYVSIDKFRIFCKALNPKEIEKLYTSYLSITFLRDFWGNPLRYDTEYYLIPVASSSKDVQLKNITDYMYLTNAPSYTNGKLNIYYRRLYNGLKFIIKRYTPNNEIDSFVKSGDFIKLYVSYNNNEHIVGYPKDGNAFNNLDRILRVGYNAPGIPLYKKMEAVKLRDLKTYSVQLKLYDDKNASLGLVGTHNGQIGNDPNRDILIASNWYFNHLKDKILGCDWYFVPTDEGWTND
Assay [3] addresses T1, tetanus toxoid. Description: SPR. This is another data set of the same source.

B1: anti-TT mAb of hybridoma P4T29115 (antibody, V domains shown)
VH: EVKLVESGGGLVKPGGSLKLSCAASGITFSNYAMSWVRQTPEKRLEWVATISSGGSYIYYPDSVKGRFTISRDNAKNTLYLQMSSLRSEDTAVYFCARLGYDGVALDYWGQGTSVTVSS
VL: ASLGDRVSISCRASQDIRNYLNWYQQRPDGTVKLLIYYTSRLHSGVPSRFSGSGSGTDYSLTISNLEQEDIATYFCQQGNTFPWTFGGGTKLEIK
In the case of B1, the binding result with tetanus toxoid [1] is on record as “binds”.

B2: phage display isolate S917 (Fab, V domains shown)
VH: LVKPGGSLKLSCAVSGFNFSNYAMSWVRQTPEKRLEWVATISSGGSYIYYPDSVKGRFTISRDNAKNTLYLQMSSLRSEDTAMYYCARQDRYGFALDYWGQGTSVTVSS
VL: SLSASLGDRVTISCRASQDINNYLNWYQQKPDGTIRLLIYYTSRLHSGVPSRFSGSGSGTDYSLTITNLEQEDFATYFCQQGNTLPWAFGGGTKLEIK
With B2, the binding result in the assay with tetanus toxoid [1] is given as “binds”.

B3: TT-specific Fab D5O 94 from the phage display library (Fab, V domains shown)
VH: LVKPGASVKIPCKASGYTFTDYNIDWVKQSHGKSLEWIGDINPNNGGTIYNQKFKDKATLTVDKSSSTAYMELRSLTSEDTAVYYCARDFYYGRYFDYWGQGTTLTVSS
VL: TMAASPGEKITITCSATSSISSNYLHWYQQKPGFSPKLLIYRTSNLASGVPARFSGSGSGTSYSLTIGTMEAEDVATYYCQQGSNIPTFGSGTKLELK
The term Kd denotes the constant that tells how readily two partners part at equilibrium. As usually defined, the koff is the rate constant with which the complex falls apart. High values mean a short-lived complex, low ones a long-lived complex. What is called kon is the second-order rate constant of association. A high value points to faster complex formation. Turning to B3, in the assay with tetanus toxoid [2], the affinity, expressed as Kd, was 4.8 nM; the koff came out at 0.00037 s⁻¹; the kon worked out at 78000 M⁻¹ s⁻¹.

B4: phage display isolate S546 (Fab, V domains shown)
VH: LVAPSQSLSITCTVSGFSLTSYGVHWVRQPPGKGLEWLGVIWPGGSTNYNSALMSRLSISKDNSKSQVFLKMNSLQTDDTAMYYCARDFQYGNYFDYWGQGTTLTVSS
VL: TMAASPGEKITITCSASSSISSNYLHWYQQKPGFSPKLLIYRTSNLASGVPTRFSGSGSGTSYSLTIGTMEAEDVATYYCQQGSSISTFGAGTKLELK
Take B4: in the assay with tetanus toxoid [1], the binding result was “binds”.

B5: anti-TT mAb of hybridoma 14 (antibody, V domains shown)
VH: VQLQESGPGLVAPSQSLSITCTVSGFSLTSYGVHWVRQPPGKGLEWLGVIWPGGSTNYNSALMSRLSISQDNSKSQVFLKMNSLQIDDTAMYHCARDFQYGNYFDYWGQGTSLTVSS
VL: MPASPGEKITITCSASSSISSNYLHWYQQKPGFSPKLLIYRTSNLASGVPARFSGSGSGTSYSLTVGTMEAEDVATYYCQQGTSIPTFGAGTKLELK
For the molecule B5, in the assay with tetanus toxoid [3], the Kd stood at 3.1 nM, the koff turned out to be 0.00029 s⁻¹ and the on-rate (kon) was 94000 M⁻¹ s⁻¹.

B6: anti-TT mAb of hybridoma 24 (antibody, V domains shown)
VH: VQLQQTGPGLVQPSQSLSITCTVSAFSLTNYGIHWVRQSPGKGLEWLGVIWTGGSTDYNAPFISRLSISKDNSKSQVFFKMNSLQANDTAIYYCVRDGYRVMDYWGQGTSVTVSS
VL: LSASVGETVTITCRASGNIHNYLAWYQQKQGKSPQLLVYNAKTLTDGVPSRFSGSGSGTQHSLKINSLQPEDFGSYYCQHFWTIPWTFGGGTKLEIK
B6: in the assay with tetanus toxoid [3], the equilibrium dissociation constant (Kd) came to 1.9 nM, the koff turned out to be 0.00016 s⁻¹ and the kon was found to be 86000 M⁻¹ s⁻¹.

B7: TT-specific Fab S10 from the phage display library (Fab, V domains shown)
VH: LVAPSQSLSITCTVSGFSLTDYGVNWVRQPPGKGLEWLGMIWGDGSTDYNSALKSRLSISKDNSKSQVFLKMNSLQTDDTARYFCVRTFHYGNYFDYWGQGTTLTVSS
VL: TMAASPGEKITITCSASSSISSNYLHWYQQKPGFSPKLLIYRTSNLASGVPARFSGSGSGTSYSLTIGTMEAEDVATYYCQQGSSIPLTFGAGTKLELK
In the assay with tetanus toxoid [2], B7 registered a Kd of 12 nM, a koff of 0.00032 s⁻¹ and a kon of 26000 M⁻¹ s⁻¹.
